This assay has as its target porcine trypsin (porcine, UniProt P00761 9-231). In words: cell-based or functional assay.

Chain of porcine trypsin (P00761 9-231 limits assumed): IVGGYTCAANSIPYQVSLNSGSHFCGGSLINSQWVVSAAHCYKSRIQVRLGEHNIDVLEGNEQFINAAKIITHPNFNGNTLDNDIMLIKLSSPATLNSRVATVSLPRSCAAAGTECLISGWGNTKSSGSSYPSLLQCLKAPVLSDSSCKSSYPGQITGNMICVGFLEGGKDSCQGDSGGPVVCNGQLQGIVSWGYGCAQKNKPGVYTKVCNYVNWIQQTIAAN

B1: ANV-KAPP (other)
chain: AQVLRGTVTDFPGFDERADAETLRKAMKGLGTDEESILTLLTSRSNAQRQEISAAFKTLFGRDLLDDLKSELTGKFEKLIVALMKPSRLYDAYELKHALKGAGTNEKVLTEIIASRTPEELRAIKQVYEEEYGSSLEDDVVGDTSGYYQRMLVVLLQANRDPDAGIDEAQVEQDAQALFQAGELKWGTDEEKFITIFGTRSVSHLRKVFDKYMTISGFQIEETIDRETSGNLEQLLLAVVKSIRSIPAYLAETLYYAMKGAGTDDHTLIRVMVSRSEIDLFNIRKEFRKNFATSLYSMIKGDTSGDYKKALLLLAGEDDEVCSEQAETGPCRAMISRWYFDVTEGKCAPFFYGGCGGNRNNFDTEEYCMAVCGSAI
B1: the “apparent stoichiometry of inhibition (amidolysis of S2444, titration of trypsin activity)” value is 1 mol inhibitor per mol enzyme.
